Among the data in patent US20240109963A1 are T cell activation EC50 (CD69-positive cells), T cell activation EC50 (CD69-positive cells), unpurified supernatant and EC50 values, retold here.

As a reminder, the EC50 is the concentration at which the effect is half-maximal.

Assay [1] deals with full-length human Claudin 18.2 on MIA PaCa-2 cells (MIA PaCa-2+ Claudin 18.2) (human) (UniProt P56856). The assay is described as follows: cell-based or functional assay.
The target of assay [2] is Claudin 18.2 on CHO cells (CHO+ Claudin 18.2) (UniProt P56856). Nature of the assay: flow cytometry on Claudin 18.2-expressing CHO cells (summary table).
Claudin 18.2 on CHO cells (CHO+ Claudin 18.2), sequence (P56856 other isoform, or with tags, fused parts or gaps limits assumed): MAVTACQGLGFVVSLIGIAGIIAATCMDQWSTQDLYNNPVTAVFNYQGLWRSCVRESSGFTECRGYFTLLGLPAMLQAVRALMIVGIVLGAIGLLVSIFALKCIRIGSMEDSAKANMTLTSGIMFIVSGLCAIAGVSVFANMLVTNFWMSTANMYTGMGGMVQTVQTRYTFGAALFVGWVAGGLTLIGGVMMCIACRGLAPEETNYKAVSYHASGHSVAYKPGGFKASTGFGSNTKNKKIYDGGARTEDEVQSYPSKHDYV
For a further assay, the target named is CD3 on Jurkat cells. The assay is described as follows: flow cytometry on Jurkat cells, CD3 binding (T cell) (summary table). (A flow cytometer gives signals particle by particle.)
CD3 on Jurkat cells, sequence (P07766 23-207, chain 1 of 3): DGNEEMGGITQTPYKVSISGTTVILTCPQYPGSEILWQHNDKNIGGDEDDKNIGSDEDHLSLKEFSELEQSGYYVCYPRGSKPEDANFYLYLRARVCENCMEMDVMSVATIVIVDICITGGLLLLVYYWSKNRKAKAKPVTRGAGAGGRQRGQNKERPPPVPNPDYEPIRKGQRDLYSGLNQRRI
CD3 on Jurkat cells, sequence (P09693 23-182, chain 2 of 3, further chain): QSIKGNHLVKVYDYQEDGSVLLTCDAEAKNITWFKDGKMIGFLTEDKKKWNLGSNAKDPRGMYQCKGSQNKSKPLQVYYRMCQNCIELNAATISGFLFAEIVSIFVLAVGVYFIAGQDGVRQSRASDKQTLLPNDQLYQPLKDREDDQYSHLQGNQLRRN
CD3 on Jurkat cells, sequence (P04234 22-171, chain 3 of 3, further chain): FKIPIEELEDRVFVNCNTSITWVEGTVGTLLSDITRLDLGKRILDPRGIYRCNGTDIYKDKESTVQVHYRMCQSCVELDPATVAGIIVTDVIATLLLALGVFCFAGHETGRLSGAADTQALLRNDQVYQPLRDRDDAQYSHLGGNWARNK

full-length human Claudin 18.2 on MIA PaCa-2 cells (MIA PaCa-2+ Claudin 18.2) (human), sequence (P56856 other isoform, or with tags, fused parts or gaps limits assumed): as the sequence (P56856 other isoform, or with tags, fused parts or gaps limits assumed) above

As for AMG910 analog (bispecific antibody), in assay [1], the T cell activation EC50 (CD69-positive cells) was determined as 0.0345 µg/mL and the T cell activation EC50 (CD69-positive cells), unpurified supernatant came out at 0.0577 µg/mL. Further, the EC50 in assay [2] stood at 0.047 µg/mL. Further, in the assay with CD3 on Jurkat cells, the EC50 worked out at 0.485 µg/mL.
